Results published in the supplement of paper PMC11780869.

System: Bacillus subtilis
Assay: cleaved RNA product abundance (RNA/gDNA barcode ratio) relative to median wild-type variant (ratio to wild type); higher = more accumulation of the downstream cleavage product
Settings: cleavage site: cggR-gapA (positions -7 to +36 mutated)
In short: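 Reporter mRNAs based on truncated aprE or tetM carried barcoded, mutagenized RNase Y cleavage-site windows built from oligos with a 9% error rate and were integrated into the B. subtilis chromosome. Cultures grew in LB at 37°C from OD600 0.0003 to 0.3. Cleaved RNA was gel-selected, reverse transcribed and barcode-sequenced together with genomic DNA barcodes, and UMIs were collapsed. Cleaved product abundance is the per-construct ratio of RNA to gDNA barcodes, scaled to the median of constructs carrying the unmutated site.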

[1] = experiment (reporter, strain, medium): exp 4a: truncated aprE reporter, strain BJT201 with 2% xylose (RNase J1 expressed)
[2] = experiment (reporter, strain, medium): exp 2b: truncated aprE reporter, strain BJT200
[3] = experiment (reporter, strain, medium): exp 6: tetM reporter, strain 168

Row | Sequence | cleaved RNA product abundance [1] | cleaved RNA product abundance [2] | cleaved RNA product abundance [3]
1 | ACAGACGAAGGAGCCGCAAAGAAGTTATTCATGGATGAATAATCCCTCAATATAAATATCTCTCACTTATTTAAA | 0.137 |  | 
2 | ACAGACGAAGGAGCCGCAAAGAAGTTATTCTGGGATGAATAATCCCTCAATATAAATATCTCTCACTTATTTAAA | 0.742 |  | 
3 | ACAGACGAAGGAGCCGCAAAGAAGTTATTGAGGCATGAATAATCCCTCAATATAAATATCTCTCACTTATTTAAA | 0.0717 | 0.0906 | 
4 | ACAGACGAAGGAGCCGCAAAGAAGTTATTGAGGGATGAATAATCCCTAAATATAAATATCTCTCACTTATTTAAA | 0.897 |  | 
5 | ACAGACGAAGGAGCCGCAAAGAAGTTATTGAGGGATGAATAATCCCTCAATATAAATATCTCTCACTTATTTAAA | 0.0555 | 0.116 | 0.247
6 | ACAGACGAAGGAGCCGCAAAGAAGTTATTGAGGGATGAATAATCCCTCAATATACATATCTCTCACTTATTTAAA | 0.0596 |  | 
7 | ACAGACGAAGGAGCCGCAAAGAAGTTATTGAGGGATGAATACTCCCTCAATATAAATATCTCTCACTTATTTAAA | 0.0909 |  | 
8 | ACAGACGAAGGAGCCGCAAAGAAGTTATTGAGGGATGAATTATCCCTCAATATAAATATCTCTCACTTATTTAAA | 0.0896 |  | 
9 | ACAGACGAAGGAGCCGCAAAGAAGTTATTGAGGGCTGAATAATCCCTCAATATAAATATCTCTCACTTATTTAAA | 0.167 |  | 
10 | ACAGACGAAGGAGCCGCAAAGAAGTTATTGCGGGATGAATAATCCCTCAATATAAATATCTCTCACTTATTTAAA | 0.869 |  | 
11 | ACAGACGAAGGAGCCGCAAAGAAGTTATTTAAGGATGAATAATCCCTCAATATAAATATCTCTCACTTATTTAAA | 0.182 | 0.125 | 
12 | ACAGACGAAGGAGCCGCAAAGAAGTTATTTAAGGGATGAATAATCCCTCAATATAAATATCTCTCACTTATTTAA | 0.315 |  | 
13 | ACAGACGAAGGAGCCGCAAAGAAGTTATTTAGCGATGAATAATCCCTCAATATAAATATCTCTCACTTATTTAAA | 0.0809 | 0.117 | 
14 | ACAGACGAAGGAGCCGCAAAGAAGTTATTTAGGAATGAATAATCCCTCAATATAAATATCTCTCACTTATTTAAA | 0.127 |  | 
15 | ACAGACGAAGGAGCCGCAAAGAAGTTATTTAGGCATGAATAATCCCTCAATATAAATATCTCTCACTTATTTAAA | 0.135 | 0.0926 | 
16 | ACAGACGAAGGAGCCGCAAAGAAGTTATTTAGGGAAGAATAATCCCTCAATATAAATATCTCTCACTTATTTAAA | 0.572 |  | 
17 | ACAGACGAAGGAGCCGCAAAGAAGTTATTTAGGGATAAATAATCCCTCAATATAAATATCTCTCACTTATTTAAA | 0.696 | 0.577 | 
18 | ACAGACGAAGGAGCCGCAAAGAAGTTATTTAGGGATCAATAATCCCTCAATATAAATATCTCTCACTTATTTAAA | 0.787 |  | 
19 | ACAGACGAAGGAGCCGCAAAGAAGTTATTTAGGGATGAACAATCCCTCAATATAAATATCTCTCACTTATTTAAA | 0.85 |  | 
20 | ACAGACGAAGGAGCCGCAAAGAAGTTATTTAGGGATGAAGAATCCCTCAATATAAATATCTCTCACTTATTTAAA | 0.607 |  | 
21 | ACAGACGAAGGAGCCGCAAAGAAGTTATTTAGGGATGAATAACCCCTCAATATAAATATCTCTCACTTATTTAAA | 0.288 |  | 

Row | Sequence | cleaved RNA product abundance [1] | cleaved RNA product abundance [2] | cleaved RNA product abundance [3]
22 | ACAGACGAAGGAGCCGCAAAGAAGTTATTTAGGGATGAATAATACCTCAATATAAATATCTCTCACTTATTTAAA | 0.141 |  | 
23 | ACAGACGAAGGAGCCGCAAAGAAGTTATTTAGGGATGAATAATCACTCAATATAAATATCTCTCACTTATTTAAA | 0.137 |  | 
24 | ACAGACGAAGGAGCCGCAAAGAAGTTATTTAGGGATGAATAATCCATCAATATAAATATCTCTCACTTATTTAAA | 0.34 |  | 
25 | ACAGACGAAGGAGCCGCAAAGAAGTTATTTAGGGATGAATAATCCCACAATATAAATATCTCTCACTTATTTAAA | 0.268 |  | 
26 | ACAGACGAAGGAGCCGCAAAGAAGTTATTTAGGGATGAATAATCCCTAAATATAAATATCTCTCACTTATTTAAA |  | 0.353 | 
27 | ACAGACGAAGGAGCCGCAAAGAAGTTATTTAGGGATGAATAATCCCTCAAGATAAATATCTCTCACTTATTTAAA |  | 0.16 | 
28 | ACAGACGAAGGAGCCGCAAAGAAGTTATTTAGGGATGAATAATCCCTCAATACAAATATCTCTCACTTATTTAAA | 0.0541 |  | 
29 | ACAGACGAAGGAGCCGCAAAGAAGTTATTTAGGGATGAATAATCCCTCAATATAAAAATCTCTCACTTATTTAAA | 0.601 |  | 
30 | ACAGACGAAGGAGCCGCAAAGAAGTTATTTAGGGATGAATAATCCCTCAATATAAACATCTCTCACTTATTTAAA | 0.701 |  | 
31 | ACAGACGAAGGAGCCGCAAAGAAGTTATTTAGGGATGAATAATCCCTCAATATAAATATCTCTCACTTATTTAAA | 0.799 | 0.704 | 0.636
32 | ACAGACGAAGGAGCCGCAAAGAAGTTATTTAGGGATGAATAATCCCTCAATATAATTATCTCTCACTTATTTAAA | 0.52 |  | 
33 | ACAGACGAAGGAGCCGCAAAGAAGTTATTTAGGGATGAATAATCCCTCAATATACATATCTCTCACTTATTTAAA | 0.312 |  | 
34 | ACAGACGAAGGAGCCGCAAAGAAGTTATTTAGGGATGAATAATCCCTCAATTTAAATATCTCTCACTTATTTAAA | 0.119 |  | 
35 | ACAGACGAAGGAGCCGCAAAGAAGTTATTTAGGGATGAATAATCCCTGAATATAAATATCTCTCACTTATTTAAA | 0.559 |  | 
36 | ACAGACGAAGGAGCCGCAAAGAAGTTATTTAGGGATGAATAATCCCTTAATATAAATATCTCTCACTTATTTAAA | 1.39 |  | 
37 | ACAGACGAAGGAGCCGCAAAGAAGTTATTTAGGGATGAATAATCCGTCAATATAAATATCTCTCACTTATTTAAA | 0.247 | 0.169 | 
38 | ACAGACGAAGGAGCCGCAAAGAAGTTATTTAGGGATGAATAATCCTTCAATATAAATATCTCTCACTTATTTAAA | 0.531 |  | 
39 | ACAGACGAAGGAGCCGCAAAGAAGTTATTTAGGGATGAATAATCGCTCAATATAAATATCTCTCACTTATTTAAA | 0.0995 |  | 
40 | ACAGACGAAGGAGCCGCAAAGAAGTTATTTAGGGATGAATAATCTCTCAATATAAATATCTCTCACTTATTTAAA | 0.646 |  | 
41 | ACAGACGAAGGAGCCGCAAAGAAGTTATTTAGGGATGAATAATTCCTCAATATAAATATCTCTCACTTATTTAAA | 0.405 |  | 
42 | ACAGACGAAGGAGCCGCAAAGAAGTTATTTAGGGATGAATCATCCCTCAATATAAATATCTCTCACTTATTTAAA | 0.542 |  | 

Row | Sequence | cleaved RNA product abundance [1] | cleaved RNA product abundance [2] | cleaved RNA product abundance [3]
43 | ACAGACGAAGGAGCCGCAAAGAAGTTATTTAGGGATGACTAATCCCTCAATATAAATATCTCTCACTTATTTAAA | 0.541 |  | 
44 | ACAGACGAAGGAGCCGCAAAGAAGTTATTTAGGGATGATTAATCCCTCAATATAAATATCTCTCACTTATTTAAA | 0.659 |  | 
45 | ACAGACGAAGGAGCCGCAAAGAAGTTATTTAGGGATTAATAATCCCTCAATATAAATATCTCTCACTTATTTAAA | 1.08 | 0.951 | 
46 | ACAGACGAAGGAGCCGCAAAGAAGTTATTTAGGGTTGAATAATCCCTCAATATAAATATCTCTCACTTATTTAAA | 0.344 | 0.225 | 
47 | ACAGACGAAGGAGCCGCAAAGAAGTTATTTAGGTATGAATAATCCCTCAATATAAATATCTCTCACTTATTTAAA | 0.165 | 0.121 | 
48 | ACAGACGAAGGAGCCGCAAAGAAGTTATTTAGTGATGAATAATCCCTCAATATAAATATCTCTCACTTATTTAAA | 0.111 | 0.0988 | 
49 | ACAGACGAAGGAGCCGCAAAGAAGTTATTTATGGATGAATAATCACTCAATATAAATATCTCTCACTTATTTAAA | 0.124 |  | 
50 | ACAGACGAAGGAGCCGCAAAGAAGTTATTTATGGATGAATAATCCCTCAATATAAATATCTCTCACTTATTTAAA | 0.165 |  | 
51 | ACAGACGAAGGAGCCGCAAAGAAGTTCATAAGGGATGAATAATCCCTCAATATAAATATCTCTCACTTATTTAAA |  | 0.162 | 
52 | ACAGACGAAGGAGCCGCAAAGAAGTTCTGAAGGGATGAATAATCCCTCAATATAAATATCTCTCACTTATTTAAA |  | 0.193 | 
53 | ACAGACGAAGGAGCCGCAAAGAAGTTCTTAAAGGATGAATAATCCCTCAATATAAATATCTCTCACTTATTTAAA | 0.112 |  | 
54 | ACAGACGAAGGAGCCGCAAAGAAGTTCTTAAGAGATGAATAATCCCTCAATATAAATATCTCTCACTTATTTAAA | 0.117 |  | 
55 | ACAGACGAAGGAGCCGCAAAGAAGTTCTTAAGGAATGAATAATCCCTCAATATAAATATCTCTCACTTATTTAAA | 0.133 |  | 
56 | ACAGACGAAGGAGCCGCAAAGAAGTTCTTAAGGCATGAATAATCCCTCAATATAAATATCTCTCACTTATTTAAA | 0.122 | 0.092 | 
57 | ACAGACGAAGGAGCCGCAAAGAAGTTCTTAAGGGAAGAATAATCCCTCAATATAAATATCTCTCACTTATTTAAA | 0.113 |  | 
58 | ACAGACGAAGGAGCCGCAAAGAAGTTCTTAAGGGATAAATAATCCCTCAATATAAATATCTCTCACTTATTTAAA | 0.212 | 0.104 | 
59 | ACAGACGAAGGAGCCGCAAAGAAGTTCTTAAGGGATCAATAATCCCTCAATATAAATATCTCTCACTTATTTAAA | 0.205 |  | 
60 | ACAGACGAAGGAGCCGCAAAGAAGTTCTTAAGGGATGAAGAATCCCTCAATATAAATATCTCTCACTTATTTAAA |  | 0.14 | 
61 | ACAGACGAAGGAGCCGCAAAGAAGTTCTTAAGGGATGAATAATACCTCAATATAAATATCTCTCACTTATTTAAA | 0.14 |  | 
